Assay in all cases: BLI; Octet RED96; client biotinylated and loaded on streptavidin sensors; Spy or Spy variant in solution at 0.25, 0.5, 1, 1.5 and 2 μM; 40 mM HEPES, 150 mM NaCl, pH 7.5; Kd calculated as koff/kon
Conditions in all cases: both partners purified

One experiment deals with T1, Spy D26E (UniProt P77754 24-161, D26E).
T1 construct: source: E. coli BL21 (DE3), purified (Ni-NTA, cation exchange, SEC); not shown: His6, N-terminal, cleaved; SUMO, N-terminal, cleaved
T1 sequence (looked up): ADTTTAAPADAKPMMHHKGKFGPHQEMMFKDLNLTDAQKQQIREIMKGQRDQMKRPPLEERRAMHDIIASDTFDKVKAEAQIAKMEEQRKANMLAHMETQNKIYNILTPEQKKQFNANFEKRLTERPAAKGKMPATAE

In the next experiment the target is T2, Spy D26K (UniProt P77754 24-161, D26K).
T2 construct: source: E. coli BL21 (DE3), purified (Ni-NTA, cation exchange, SEC); not shown: His6, N-terminal, cleaved; SUMO, N-terminal, cleaved
T2 sequence (looked up): T1 sequence (looked up) with E26K

For the next experiment, the target named is T3, Spy D26A (UniProt P77754 24-161, D26A).
T3 construct: source: E. coli BL21 (DE3), purified (Ni-NTA, cation exchange, SEC); not shown: His6, N-terminal, cleaved; SUMO, N-terminal, cleaved
T3 sequence (looked up): T1 sequence (looked up) with E26A

Another experiment concerns the target T4, Spy D26R (UniProt P77754 24-161, D26R).
T4 construct: source: E. coli BL21 (DE3), purified (Ni-NTA, cation exchange, SEC); not shown: His6, N-terminal, cleaved; SUMO, N-terminal, cleaved
T4 sequence (looked up): T1 sequence (looked up) with E26R

Broadly, the koff is the first-order rate constant of dissociation.

Numbering of substitutions follows the chain as printed. Names and notes keep the numbering of the source.

B1: Im7 H40W L53A I54A (natural protein)
chain: MELKNSISDYTEAEFVQLLKEIEKENVAATDDVLDVLLEWFVKITEHPDGTDAAYYPSDNRDDSPEGIVKEIKEWRAANGKPGFKQG
modifications: biotin (EZ-link NHS-biotin, 1:1 molar ratio of biotin to protein)
notes: Im7 (colicin E7 immunity protein) with H40W L53A I54A; Spy was made with an N-terminal His6-SUMO tag that was cleaved; also called Im7AAW; partially folded client; source: purified by a similar procedure to Spy
As to B1, the koff with Spy D26E is 0.196 s⁻¹; in the experiment with Spy D26K it was 0.0775 s⁻¹; in the experiment with Spy D26A it was 0.0876 s⁻¹; with Spy D26R, 0.0811 s⁻¹.
